This note sets out measurements from PMC9638917, “Non-canonical Staphylococcus aureus pathogenicity island repression”.

By stoichiometry N is commonly meant a count of units in the complex or per binding partner.

In data set [1] the target is SaPI1 Stl repressor L201E mutant (Stl^(SaPI1 L201E)), expressed alone (Staphylococcus aureus (pathogenicity island SaPI1)). The data set can be described thus: SEC-MALS; 2 mg/ml, Stl alone or in complex with Sri; 50 mM Tris-HCl pH 7.5, 250 mM NaCl, 5 mM MgCl2; Protein KW403 column (Shodex), 0.4 ml/min. In general terms: In gel filtration, larger molecules generally elute earlier.

Data set [2] has as its target SaPI1 Stl repressor (Stl^SaPI1), untagged, co-expressed with His6-Sri (Staphylococcus aureus (pathogenicity island SaPI1)). Described as above.
Data set [3] has the same target. The data set can be described thus: SEC-SAXS; 10.0 mg/ml Stl^SaPI1 and 6.5 mg/ml Stl^SaPI1-Sri (His6 tag on Sri); Superdex 200 Increase 3.2, 10 mM Tris pH 8, 1% (w/v) sucrose; mass by Bayesian inference.
For data set [4] the target is unchanged. The data set can be described thus: crystal structure; 80α Sri-Stl^SaPI1 SeMet derivative, His6-tag of Sri removed; sitting drop, 15 °C, 0.4 M ammonium phosphate, 25% PEG200; SAD, 2.9 Å.
For data set [5], the target named is SaPI1 Stl repressor (Stl^SaPI1), expressed alone with an N-terminal His6-tag and TEV site (Staphylococcus aureus (pathogenicity island SaPI1)). The data set can be described thus: SEC-MALS; 2 mg/ml, Stl alone or in complex with Sri; 50 mM Tris-HCl pH 7.5, 250 mM NaCl, 5 mM MgCl2; Protein KW403 column (Shodex), 0.4 ml/min.
The target is the same in data set [6]. The data set can be described thus: SEC-SAXS; 10.0 mg/ml Stl^SaPI1 and 6.5 mg/ml Stl^SaPI1-Sri (His6 tag on Sri); Superdex 200 Increase 3.2, 10 mM Tris pH 8, 1% (w/v) sucrose; mass by Bayesian inference.
The target of data set [7] is SaPI1 Stl repressor L201E mutant (Stl^(SaPI1 L201E)), untagged, co-expressed with His6-Sri (Staphylococcus aureus (pathogenicity island SaPI1)). As to the kind of experiment: crystal structure; 80α Sri-Stl^(SaPI1 L201E), His6-tag of Sri removed; sitting drop, 15 °C, 0.1 M Tris-HCl pH 8.5, 22% PEG350; molecular replacement, 2.97 Å.
For another data set, the target named is StlSaPI1 (Staphylococcus aureus pathogenicity …, UniProt O54475 1-247). As to the kind of experiment: EMSA; two complex species; BLI: 50 mM Tris-HCl pH 8, 300 mM NaCl, 5 mM MgCl2, 50 uM EDTA, 0.005% Tween, 25 C; EMSA: 50 mM Tris-HCl pH 8, 5 mM MgCl2, 1 mM DTT, 0.1 mM EDTA, 5% glycerol, 1. The conditions noted are these: protein: recombinant; tags: N-terminal His6 + TEV site; chain copies: 4; near blunt as printed. For orientation: In EMSA bound probe runs differently from free probe, usually more slowly.

As for “SaPI1 Stl repressor L201E mutant (Stl^(SaPI1 L201E)), expressed alone (natural protein)”, the stoichiometry N in data set [1] is 2. Turning to “SaPI1 Stl repressor (Stl^SaPI1), untagged, co-expressed with His6-Sri (natural protein)”, the stoichiometry N in data set [2], in data set [3] and in data set [4] was 4 each time. As to “SaPI1 Stl repressor (Stl^SaPI1), expressed alone with an N-terminal His6-tag and TEV site (natural protein)”, the stoichiometry N in data set [5] and in data set [6] was 4 each time. “SaPI1 Stl repressor L201E mutant (Stl^(SaPI1 L201E)), untagged, co-expressed with His6-Sri (natural protein)” displayed a stoichiometry N in data set [7] of 2.

B1: Operator 1-4 (dsDNA)
DNA 1: GGATAAGTTGTACTTTGAGTACAATATTTTAAAAAATGAAAAAAAAAAAAGAAGTGTGTAATATTTGTTTAAAAAACAAAAAAAAAAAAAGTACTTGTAGTACTAAAAGAAC
DNA 2: GGTTCTTTTAGTACTACAAGTACTTTTTTTTTTTTTGTTTTTTAAACAAATATTACACACTTCTTTTTTTTTTTTCATTTTTTAAAATATTGTACTCAAAGTACAACTTATCC
Take B1: in the data set with StlSaPI1, the binding result was “binds”.
